From article PMC4120239 (Nature communications, 2014)

B1: 3.2 scFv mAb, somatically mutated (scFv, V domains shown)
VH: QVQLVQSGAEVKKPGASVKVSCKASGYTFTSYYMHWVRQAPGHGLEWMGIINPSGGIANYAQKFQGRVTMTRDTSTSTVYMDLSSLTSEDTAVYYCARDLGGFDFDYWGQGTLVTVSS
VL: ELALTQPPSVSGSPGQSVTISCTGTSSDIGRYNFVSWYQQHPGKAPKLMIYEIYKRPSGVPDRFSGSRSGNTASLTVSGLQAEDEADYYCSSYVGNNDLVFGGGTQLTVL
B2: F779 scFv, somatically mutated (scFv, V domains shown)
VH: QVQLVQSGADVKKPGASVKVSCTASGNTFTTYSLHWVRQAPGQGLEWMGVIDPSGGSTSYAQKFQGRLTMTRDTSTSTFYMELSSLRSEDTAVYYCARSIESISGRTLGYWGQGTLVTVSS
VL: DIVMTQTPLSSPVTLGQPASISCRSSETLVHSDGNTYLSWLQQRPGQPPRLLIYKISNRFSGVPDRFSGSGAGTDFTLKISRVEAEDVGVYYCLQATEFPYTFGQGTKLEIK
B3: PVE4-8 scFv mAb, somatically mutated (scFv, V domains shown)
VH: QVQLVQSWAEVKKPGASVKFSCKASGYTFTAYYMHWVRQAPGQGLEWMGIINPSGGIATYAEKFQGRVTMTRDTSTTTVYMELSSLRSQDAAVYYCARDRQGFDLDVWGQGTTVTVSS
VL: ELVLTQPPSASGSPGQSVTISCTGTSSDVGGYNYVSWYQQHPGKAPKLMIYEVNKRPSGVPDRFSGSRSGNTASLTVSGLQAEDEADYYCSSYAGSNNLVFGGGTKVTVL
B4: 4.2 scFv mAb, somatically mutated (scFv, V domains shown)
VH: EVQLVQSGAEVKKPGASLKVSCQASGYIFTSHYIHWVRQAPGQGLEWMGIINPSGGKTTFAQKFQGRVTMTRDTSTRTVYMEMSGLRSEDTAVYYCARDQSLGMDVWGQGTTVIVSS
VL: ELALTQPPSVSGSPGQSITISCTGTSSDVGGYNYVSWYQQHPGKAPKLMIYEVSKRPSGVSNRFSGSKSGNTASLTISGLQAEDEADYYCSSYAGSNNWVFGGGTKLTVL

Key:
[1] = molecular target: Dsg3-Fc recombinant fusion protein (Homo sapiens, UniProt P32926); assay: SPR
[2] = molecular target: desmoglein 3 (Dsg3) on Dsg3 ELISA plates (Homo sapiens, UniProt P32926); assay: ELISA
desmoglein 3 (Dsg3) on Dsg3 ELISA plates, sequence (P32926 50-615): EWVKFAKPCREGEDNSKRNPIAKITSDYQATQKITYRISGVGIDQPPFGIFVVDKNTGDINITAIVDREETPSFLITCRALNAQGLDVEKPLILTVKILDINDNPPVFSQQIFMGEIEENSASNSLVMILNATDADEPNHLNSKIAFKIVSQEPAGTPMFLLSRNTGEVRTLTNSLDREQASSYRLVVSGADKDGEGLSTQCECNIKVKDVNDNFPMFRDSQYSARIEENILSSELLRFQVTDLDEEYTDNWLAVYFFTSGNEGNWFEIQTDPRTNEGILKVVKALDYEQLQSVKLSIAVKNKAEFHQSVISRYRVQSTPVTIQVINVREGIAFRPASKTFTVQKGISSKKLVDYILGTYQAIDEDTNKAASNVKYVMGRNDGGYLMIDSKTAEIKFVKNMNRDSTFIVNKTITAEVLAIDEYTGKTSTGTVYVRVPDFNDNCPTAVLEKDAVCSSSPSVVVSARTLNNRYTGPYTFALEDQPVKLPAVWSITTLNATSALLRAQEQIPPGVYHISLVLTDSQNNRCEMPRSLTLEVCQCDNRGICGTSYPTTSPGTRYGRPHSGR

Dsg3-Fc recombinant fusion protein, sequence (P32926 50-615): as above

Binder	Kd [1]	koff [1]	kon [1]	binding result [2]
B1	1.42 nM	0.00231 s⁻¹	1.62e+06 M⁻¹ s⁻¹	
B2	1.77 nM	0.000548 s⁻¹	310000 M⁻¹ s⁻¹	binds
B3	2.39 nM	0.00123 s⁻¹	515000 M⁻¹ s⁻¹	
B4	0.182 nM	0.000712 s⁻¹	3.91e+06 M⁻¹ s⁻¹	
